This assay concerns the target T1, protein A–Sro7p (yeast (budding yeast), UniProt Q12038 1-1033).
T1 sequence: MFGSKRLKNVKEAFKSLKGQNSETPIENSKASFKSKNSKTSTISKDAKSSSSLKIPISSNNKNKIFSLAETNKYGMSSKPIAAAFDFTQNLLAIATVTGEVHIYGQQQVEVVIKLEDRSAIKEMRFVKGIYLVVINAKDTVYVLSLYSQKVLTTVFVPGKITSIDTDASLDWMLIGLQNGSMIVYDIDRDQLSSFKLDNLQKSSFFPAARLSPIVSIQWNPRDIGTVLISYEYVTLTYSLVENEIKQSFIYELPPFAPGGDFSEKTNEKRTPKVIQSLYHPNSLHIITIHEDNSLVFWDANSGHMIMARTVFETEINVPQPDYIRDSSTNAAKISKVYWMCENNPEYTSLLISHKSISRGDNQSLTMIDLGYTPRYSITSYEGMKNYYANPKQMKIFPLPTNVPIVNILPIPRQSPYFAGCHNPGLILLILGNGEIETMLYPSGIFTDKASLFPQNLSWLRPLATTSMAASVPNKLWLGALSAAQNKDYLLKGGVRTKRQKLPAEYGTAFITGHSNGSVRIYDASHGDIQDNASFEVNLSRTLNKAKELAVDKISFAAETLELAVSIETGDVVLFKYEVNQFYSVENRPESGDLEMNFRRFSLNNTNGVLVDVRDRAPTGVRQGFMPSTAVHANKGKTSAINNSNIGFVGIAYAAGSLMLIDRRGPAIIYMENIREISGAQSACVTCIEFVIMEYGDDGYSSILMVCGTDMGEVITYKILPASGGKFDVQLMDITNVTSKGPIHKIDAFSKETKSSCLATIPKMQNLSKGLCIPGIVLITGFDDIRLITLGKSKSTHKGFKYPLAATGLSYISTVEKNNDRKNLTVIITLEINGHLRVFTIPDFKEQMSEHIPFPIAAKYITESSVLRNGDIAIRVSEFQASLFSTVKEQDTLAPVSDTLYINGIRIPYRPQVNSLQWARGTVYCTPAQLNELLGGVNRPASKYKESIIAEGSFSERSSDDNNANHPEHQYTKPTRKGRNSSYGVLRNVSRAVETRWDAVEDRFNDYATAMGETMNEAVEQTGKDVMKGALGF
Description: pull-down.

The Kd is the free concentration of one partner at which half of the binding sites on the other are occupied at equilibrium, for simple one-to-one binding.

B1: Exo84p NH2-terminal domain (aa 1–320) GST fusion protein (domain or fragment)
chain: MVEFSLKKARNNWKHVKKSASSPAKQKTPPSPAKPKQKTKKNPYSDLKDPATSYTLPTINARERSRVATSMQRRLSIHNTNYAPPTLDYSMPLPDMPNMIVPNDNVDSSHNNSSFTTENESVSSKGPSNSLNLSTADLSLNDSSYNKVPARSAMRNTVNPSGSNDPFNNSTSLRKMLANPHFNAKDFVHDKLGNASAITIDKFTSNLTDLSIQVQEEVKLNINKSYNEIMTVNNDLNVAMLELKRVRANINDLNEVLDQCTKIAEKRLQLQDQIDQERQGNFNNVESHSNSPALLPPLKAGQNGNLMRRDRSSVLILEKF
B1 yielded a Kd of 46 ± 6 nM.

The values are drawn from paper PMC2171422 (The Journal of Cell Biology, 2005).
